Laboratory results published in article PMC2756588.

T1: Cdc25, P04821
T1 sequence (P04821 50-136, looked up): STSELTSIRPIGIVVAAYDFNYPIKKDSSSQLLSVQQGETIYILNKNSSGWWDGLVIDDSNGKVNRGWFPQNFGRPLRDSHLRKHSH

T2: Cyk3, Q07533
T2 sequence (Q07533 1-83, looked up): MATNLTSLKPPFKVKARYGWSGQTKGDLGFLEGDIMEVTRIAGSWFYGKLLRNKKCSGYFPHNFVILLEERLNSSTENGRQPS

T3: Hse1, P38753
T3 sequence (P38753 208-285, looked up): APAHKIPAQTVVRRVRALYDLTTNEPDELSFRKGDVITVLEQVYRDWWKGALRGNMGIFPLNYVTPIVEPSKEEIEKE

T4: Nbp2, Q12163
T4 sequence (Q12163 103-180, looked up): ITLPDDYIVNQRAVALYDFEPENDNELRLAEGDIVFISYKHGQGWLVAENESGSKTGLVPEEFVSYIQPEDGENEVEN

T5: Hof1, Q05080
T5 sequence (Q05080 590-669, looked up): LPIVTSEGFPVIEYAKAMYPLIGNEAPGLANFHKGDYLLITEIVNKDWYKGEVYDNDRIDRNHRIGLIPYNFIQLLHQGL

T6: Pex13, P80667
T6 sequence (P80667 295-386, looked up): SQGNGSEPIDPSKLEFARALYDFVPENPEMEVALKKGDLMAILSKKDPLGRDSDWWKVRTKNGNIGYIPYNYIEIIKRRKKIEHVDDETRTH

T7: Lsb1, P53281
T7 sequence (P53281 45-122, looked up): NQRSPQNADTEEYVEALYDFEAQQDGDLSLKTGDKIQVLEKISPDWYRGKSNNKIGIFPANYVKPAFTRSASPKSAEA

T8: Bzz1-2, P38822
T8 sequence (P38822 568-633, looked up): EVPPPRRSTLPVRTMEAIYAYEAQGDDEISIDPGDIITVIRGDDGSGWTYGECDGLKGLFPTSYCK

T9: Sla1-2, P32790
T9 sequence (P32790 60-140, looked up): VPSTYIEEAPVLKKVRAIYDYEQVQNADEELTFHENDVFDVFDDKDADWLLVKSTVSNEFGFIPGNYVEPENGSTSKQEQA

T10: Boi1, P38041
T10 sequence (P38041 1-86, looked up): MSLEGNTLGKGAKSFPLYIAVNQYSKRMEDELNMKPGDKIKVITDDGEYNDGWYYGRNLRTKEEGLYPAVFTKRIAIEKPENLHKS

T11: Myo5, Q04439
T11 sequence (Q04439 1072-1160, looked up): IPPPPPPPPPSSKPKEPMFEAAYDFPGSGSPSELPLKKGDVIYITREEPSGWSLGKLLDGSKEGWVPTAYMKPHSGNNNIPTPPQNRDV

T12: Bud14, P27637
T12 sequence (P27637 247-328, looked up): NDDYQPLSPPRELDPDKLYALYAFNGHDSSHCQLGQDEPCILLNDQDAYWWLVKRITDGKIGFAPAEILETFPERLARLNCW

T13: Sla1-3, P32790
T13 sequence (P32790 344-424, looked up): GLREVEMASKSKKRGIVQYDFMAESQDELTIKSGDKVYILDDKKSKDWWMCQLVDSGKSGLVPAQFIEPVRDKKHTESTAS

T14: Bzz1-1, P38822
T14 sequence (P38822 478-572, looked up): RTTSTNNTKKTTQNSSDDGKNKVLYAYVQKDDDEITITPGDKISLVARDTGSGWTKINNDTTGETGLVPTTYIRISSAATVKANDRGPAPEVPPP

T15: Boi2, P39969
T15 sequence (P39969 32-116, looked up): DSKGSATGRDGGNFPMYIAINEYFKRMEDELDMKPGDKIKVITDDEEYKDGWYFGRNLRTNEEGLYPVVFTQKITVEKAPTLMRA

T16: Fus1, P11710
T16 sequence (P11710 432-512, looked up): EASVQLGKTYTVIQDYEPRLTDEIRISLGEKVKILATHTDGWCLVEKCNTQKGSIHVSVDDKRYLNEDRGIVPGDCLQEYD

T17: Abp1, P15891
T17 sequence (P15891 535-592, looked up): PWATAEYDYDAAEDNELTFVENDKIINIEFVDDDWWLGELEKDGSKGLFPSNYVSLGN

T18: Lsb4, P32793
T18 sequence (P32793 402-468, looked up): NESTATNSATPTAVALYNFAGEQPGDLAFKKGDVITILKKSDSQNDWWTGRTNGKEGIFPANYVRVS

T19: Pin3, Q06449
T19 sequence (Q06449 53-122, looked up): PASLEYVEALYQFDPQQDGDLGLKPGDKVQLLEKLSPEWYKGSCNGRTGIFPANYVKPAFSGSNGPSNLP

T20: Lsb3, P43603
T20 sequence (P43603 385-451, looked up): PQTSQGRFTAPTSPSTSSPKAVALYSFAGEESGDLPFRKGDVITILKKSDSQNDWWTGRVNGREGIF

T21: Bbc1, P47068
T21 sequence (P47068 1-78, looked up): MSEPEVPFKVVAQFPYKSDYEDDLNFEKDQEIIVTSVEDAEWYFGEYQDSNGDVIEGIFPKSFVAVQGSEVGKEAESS


Key:
Assay in all cases: SPOT array
Cdc25, P04821 = target: T1, Cdc25, P04821; settings: median of control spots 969
Bem1-1, P29366 = settings: median of control spots 4282
Chain of Bem1-1, P29366 (P29366 55-141): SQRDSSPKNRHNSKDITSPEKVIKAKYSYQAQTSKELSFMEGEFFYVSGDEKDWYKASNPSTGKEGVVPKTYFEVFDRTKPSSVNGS

Cyk3, Q07533 = target: T2, Cyk3, Q07533; settings: median of control spots 1451
Hse1, P38753 = target: T3, Hse1, P38753; settings: median of control spots 1727
Nbp2, Q12163 = target: T4, Nbp2, Q12163; settings: median of control spots 357
Sho1, P40073 = settings: median of control spots 1148
Chain of Sho1, P40073 (P40073 287-367): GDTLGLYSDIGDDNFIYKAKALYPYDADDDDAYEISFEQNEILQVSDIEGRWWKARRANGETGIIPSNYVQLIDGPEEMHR

GST = settings: median of control spots 978
Bem1-2, P29366 = settings: median of control spots 4347
Chain of Bem1-2, P29366 (P29366 139-227): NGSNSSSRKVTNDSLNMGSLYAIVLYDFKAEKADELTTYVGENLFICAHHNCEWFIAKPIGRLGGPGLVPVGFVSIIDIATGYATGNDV

Myo3, P36006 = settings: median of control spots 468
Hof1, Q05080 = target: T5, Hof1, Q05080; settings: median of control spots 4086
Pex13, P80667 = target: T6, Pex13, P80667; settings: median of control spots 1341
Lsb1, P53281 = target: T7, Lsb1, P53281; settings: median of control spots 388
Rvs167, P39743 = settings: median of control spots 2707
Chain of Rvs167, P39743 (P39743 419-482): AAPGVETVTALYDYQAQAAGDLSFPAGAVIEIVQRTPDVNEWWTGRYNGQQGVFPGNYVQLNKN

Bzz1-2, P38822 = target: T8, Bzz1-2, P38822; settings: median of control spots 4538
Sla1-2, P32790 = target: T9, Sla1-2, P32790; settings: median of control spots 712
Boi1, P38041 = target: T10, Boi1, P38041; settings: median of control spots 1162
Myo5, Q04439 = target: T11, Myo5, Q04439; settings: median of control spots 471
Bud14, P27637 = target: T12, Bud14, P27637; settings: median of control spots 956
Sla1-3, P32790 = target: T13, Sla1-3, P32790; settings: median of control spots 5475
Bzz1-1, P38822 = target: T14, Bzz1-1, P38822; settings: median of control spots 4446
Boi2, P39969 = target: T15, Boi2, P39969; settings: median of control spots 1161
Fus1, P11710 = target: T16, Fus1, P11710; settings: median of control spots 1200
Abp1, P15891 = target: T17, Abp1, P15891; settings: median of control spots 935
Lsb4, P32793 = target: T18, Lsb4, P32793; settings: median of control spots 397
Pin3, Q06449 = target: T19, Pin3, Q06449; settings: median of control spots 2171
Lsb3, P43603 = target: T20, Lsb3, P43603; settings: median of control spots 406
Bbc1, P47068 = target: T21, Bbc1, P47068; settings: median of control spots 796

Row | Binder | SPOT intensity (Cdc25, P04821) | SPOT intensity (Bem1-1, P29366) | SPOT intensity (Cyk3, Q07533) | SPOT intensity (Hse1, P38753) | SPOT intensity (Nbp2, Q12163) | SPOT intensity (Sho1, P40073) | SPOT intensity (GST) | SPOT intensity (Bem1-2, P29366) | SPOT intensity (Myo3, P36006) | SPOT intensity (Hof1, Q05080) | SPOT intensity (Pex13, P80667) | SPOT intensity (Lsb1, P53281) | SPOT intensity (Rvs167, P39743) | SPOT intensity (Bzz1-2, P38822) | SPOT intensity (Sla1-2, P32790) | SPOT intensity (Boi1, P38041) | SPOT intensity (Myo5, Q04439) | SPOT intensity (Bud14, P27637) | SPOT intensity (Sla1-3, P32790) | SPOT intensity (Bzz1-1, P38822) | further results
1 | NNFYRPLLRSVLVLL | 22 | 0 | 9 | 0 | 3 | 17 | 1 | 3 | 0 | 0 | 4 | 0 | 2 | 2 | 0 | 6 | 0 | 14 | 4 | 3 | SPOT intensity (Boi2, P39969): 2; SPOT intensity (Fus1, P11710): 13; SPOT intensity (Abp1, P15891): 14; SPOT intensity (Lsb4, P32793): 0; SPOT intensity (Pin3, Q06449): 5; SPOT intensity (Lsb3, P43603): 1; SPOT intensity (Bbc1, P47068): 37
2 | GERSRPLVISILSSA | 16 | 0 | 0 | 0 | 2 | 38 | 0 | 0 | 5 | 0 | 39 | 0 | 0 | 1 | 1 | 2 | 0 | 14 | 0 | 3 | SPOT intensity (Boi2, P39969): 0; SPOT intensity (Fus1, P11710): 3; SPOT intensity (Abp1, P15891): 16; SPOT intensity (Lsb4, P32793): 4; SPOT intensity (Pin3, Q06449): 26; SPOT intensity (Lsb3, P43603): 0; SPOT intensity (Bbc1, P47068): 0
3 | HGKRRAPLLLAKLDV | 7 | 0 | 0 | 0 | 1 | 85 | 1 | 0 | 5 | 0 | 5 | 0 | 0 | 1 | 0 | 0 | 0 | 14 | 1 | 0 | SPOT intensity (Boi2, P39969): 0; SPOT intensity (Fus1, P11710): 0; SPOT intensity (Abp1, P15891): 79; SPOT intensity (Lsb4, P32793): 4; SPOT intensity (Pin3, Q06449): 9; SPOT intensity (Lsb3, P43603): 0; SPOT intensity (Bbc1, P47068): 17
